PMC2323298 (PLoS Pathogens, 2007)

B1: 1F9 Fab fragment (Fab, V domains shown)
VH: EVQLQQSGAELLRPGASVKLSCIVSGFKIKDTSMHWVKQRPEQGLEWIGRIDPANDNSEYDPKFQGKATITADTSSNTAYLQLSSLTSEDTAVYYCTLSHFWGQGTTLTVSS
VL: SIVMTQTPKFLPVSAGDRVTIICKASQSVSNDVVWYQQKPGQSPKLLIYYASIRYTGVPDRFTGSGYGTDFTFTISTVQVEDLAVYFCQQGFSSPRTFGGGTKLEIN
notes: also called Fab 1F9
B2: Mouse monoclonal antibody 1F9 (isotype IgG2b with a Kappa light chain) (antibody, V domains shown)
VH: EVQLQQSGAELLRPGASVKLSCIVSGFKIKDTSMHWVKQRPEQGLEWIGRIDPANDNSEYDPKFQGKATITADTSSNTAYLQLSSLTSEDTAVYYCTLSHFWGQGTTLTVSS
VL: SIVMTQTPKFLPVSAGDRVTIICKASQSVSNDVVWYQQKPGQSPKLLIYYASIRYTGVPDRFTGSGYGTDFTFTISTVQVEDLAVYFCQQGFSSPRTFGGGTKLEIN
notes: also called mAb 1F9

Experiments:
[1] = target: T1, AMA1 (apical membrane antigen 1) domains I+II (Plasmodium falciparum 3D7, UniProt Q7KQK5); assay: crystal structure; AMA1 domains I+II and 1F9 Fab mixed (Fab in slight excess); 20 mM MES pH 6.0, 10 mM MnCl2, 6% PEG 3350, hanging drops; two crystal forms; settings: both partners purified
T1 construct: also called AMA1 domains I+II

[2] = target: T2, 3D7 AMA1 domain I expressed on M13 phage (Plasmodium falciparum 3D7, UniProt Q7KQK5); assay: ELISA; settings: one partner purified
T2 construct: also called 3D7 domain I; domain I AMA1

[3] = target: T3, Full-length 3D7 AMA1 ectodomain (Plasmodium falciparum 3D7, UniProt Q7KQK5); assay: ELISA; competition ELISA: 100 ul of 0.3 ug/ml full-length AMA1 ectodomain immobilised on plastic; dilutions of human plasma added, followed by 10 ul of 3.0 ug/ml mAb; peroxidase-conjugated anti-mouse antibodies; settings: both partners purified
T3 construct: also called recombinant full-length 3D7 AMA1 ectodomain; full-length recombinant AMA1

Binder | binding result [1] | binding result [2] | binding result [3]
B1 | binds |  | 
B2 |  | binds | binds
